The record followed here is patent publication US20250215089A1 (HARBOUR BIOMED SHANGHAI, published 2025).

A word on the EC50: it is the concentration giving half of the maximal effect.

Experiment [1] addresses T1, human CD40 (human, UniProt P25942 21-277). Briefly: cell-based or functional assay.
The target in experiment [2] is T1, human CD40. The experiment in a line: FACS, Raji cells. On the procedure: The cells were incubated at 4° C. for 1 hours in the dark. After the incubation, the cells were rinsed twice by adding pre-chilled PBS at 100 μL/well, and centrifuged at 500 g at 4° C. for 5 minutes, and the supernatant was discarded. Then, a fluorescent secondary antibody (goat anti-human IgG (H+L) secondary antibody, Alexa Fluor® 488 conjugate, Invitrogen, #A11013, 1:1000 dilution) was added at 100 μL/well, and the cells were incubated at 4° C. for 30 minutes in the dark. The cells were washed twice with pre-chilled PBS at 200 μL/well, and centrifuged at 500 g at 4° C. for 5 minutes, and the supernatant was discarded. Finally, the cells were resuspended in pre-chilled PBS at 200 μL/well. The fluorescence signal values were read using a BD FACS CANTOII flow cytometer or ACEA NovoCyte flow cytometer, and the data were processed and analyzed using FlowJo v10 software (FlowJo, LLC).
Data processing and graphical analysis were performed using GraphPad Prism 8 software. The binding curve of the antibody to the target cell and parameters, such as EC₅₀ value were obtained by four-parameter nonlinear fitting.
Background: A flow cytometer gives signals particle by particle.

In another experiment the target is T2, cynomolgus monkey PD-L1 (cynomolgus monkey).
T2 construct: whole, on cells; also called cyPD-L1
The experiment in a line: FACS, CHO-K1/cyPD-L1 cells. The essentials: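 Binding of antibodies to PD-L1-expressing cells (1×10⁶ cells/mL in PBS/2% BSA), tested in 4-fold dilution series. Incubation 2 h at 4° C in the dark, then washes. Fluorescence read by flow cytometry.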

The target in experiment [3] is T1, human CD40. Briefly: FACS, MDA-MB-231 cells.
The target in experiment [4] is T1, human CD40. The experiment in a line: FACS, CHO-K1/hCD40 cells. The essentials:
(§1)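 Cells carrying bound test antibody were kept 1 h at 4° C in the dark, washed in cold PBS, then stained 30 min at 4° C with Alexa Fluor 488 goat anti-human IgG (H+L) (1:1000). Fluorescence signal was read by flow cytometry.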

The target in a further experiment is T3, cynomolgus monkey CD40 (cynomolgus monkey).
T3 construct: whole, on cells; also called cyCD40
Briefly: FACS, CHO-K1/cyCD40 cells. The method in brief:
as §1

The target in experiment [5] is T1, human CD40. Briefly: FACS, Raji cells. The method in brief:
as §1
The source holds these as a separate data set.

The target of experiment [6] is T1, human CD40. The experiment in a line: cell-based or functional assay. The source holds these as a separate data set.

Where “and” joins values, the source holds several entries; their conditions need not be identical. Identical values can stand only once.

T1 sequence (P25942 21-277): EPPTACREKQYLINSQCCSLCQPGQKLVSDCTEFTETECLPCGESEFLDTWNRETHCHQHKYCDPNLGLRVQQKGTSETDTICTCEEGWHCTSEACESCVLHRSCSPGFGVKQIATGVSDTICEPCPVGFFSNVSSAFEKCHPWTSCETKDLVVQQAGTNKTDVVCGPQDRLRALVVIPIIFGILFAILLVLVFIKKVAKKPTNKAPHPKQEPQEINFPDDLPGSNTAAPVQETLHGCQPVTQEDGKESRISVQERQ

B1: PR003379 (antibody, human IgG2, kappa, V domains shown)
VH: QVQLVQSGAEVKKPGASVKVSCKASGYTFAGYYMYWVRQAPGQGLEWMGWINPDSGAPTYAQKFQGRVTMTRDTSISTAYMELSRLRSDDTAVYYCAREKIYYGSGNYYPSFDYWGQGTLVTVSS
VL: DIQLTQSPSFLSASVGDRVTITCRASQGISSYLAWYQQKPGKAPKLLIYAASTLQSGVPSRFSGSGSGTEFTLTISSLQPEDFATYYCQQLNSYPWTFGQGTKVEIKR
notes: also called clone 18C4A12-1B1
In the case of B1, in the experiment with human CD40 [1], the “EC50, HEK293-hCD40-NFκB reporter, crosslinked (CHO-K1/hCD32B)” value was 0.178 nM; the “EC50, HEK293-hCD40-NFκB reporter, uncrosslinked (CHO-K1)” value is 0.369 nM; the “Fold (EC50 in the absence of crosslinking/EC50 in the presence of crosslinking)” value turned out to be 2.07 fold. Moreover, in the experiment with human CD40 [2], the EC50 came to 0.0699 nM and the “Maximum MFI” value was determined as 3700 MFI.

B2: Selicrelumab (antibody, human IgG2, kappa, V domains shown)
VH: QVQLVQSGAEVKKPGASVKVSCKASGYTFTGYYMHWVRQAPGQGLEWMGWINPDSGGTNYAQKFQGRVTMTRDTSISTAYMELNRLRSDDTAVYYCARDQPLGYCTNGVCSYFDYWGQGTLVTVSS
VL: DIQMTQSPSSVSASVGDRVTITCRASQGIYSWLAWYQQKPGKAPNLLIYTASTLQSGVPSRFSGSGSGTDFTLTISSLQPEDFATYYCQQANIFPLTFGGGTKVEIKR
notes: Positive control anti-CD40 antibody; also called PR001028
With B2, the “EC50, HEK293-hCD40-NFκB reporter, crosslinked (CHO-K1/hCD32B)” value in the experiment with human CD40 [1] came out at 0.0413 nM. Further, the “EC50, HEK293-hCD40-NFκB reporter, uncrosslinked (CHO-K1)” value in the experiment with human CD40 [1] is 0.163 nM. In addition, the “Fold (EC50 in the absence of crosslinking/EC50 in the presence of crosslinking)” value with human CD40 [1] was 3.94 fold. The EC50 came out at 0.484 nM in the experiment with human CD40 [2]; 0.936 nM with human CD40 [3]; 2.58 nM with human CD40 [4]; 4.74 nM with cynomolgus monkey CD40; 3.02 nM in the experiment with human CD40 [5]. In addition, the “Maximum MFI” value with human CD40 [2] turned out to be 2450 MFI; in the experiment with cynomolgus monkey PD-L1, 94 MFI; in the experiment with human CD40 [4], 13900 MFI; in the experiment with cynomolgus monkey CD40, 53400 MFI; with human CD40 [5], 5170 MFI. The “EC50, HEK293-hCD40-NFκB reporter, + CHO-K1” value with human CD40 [6] was 0.183 nM and 0.241 nM. Moreover, the “EC50, HEK293-hCD40-NFκB reporter, + CHO-K1/hPD-L1” value in the experiment with human CD40 [6] was 0.155 nM and 0.205 nM.
